Columns and labels:
[1] = target: T1, M. kandleri AV19 DNA polymerase family B (Mka PolB) (MK1039) (Methanopyrus kandleri AV19); assay: cell-based or functional assay
T1 chain: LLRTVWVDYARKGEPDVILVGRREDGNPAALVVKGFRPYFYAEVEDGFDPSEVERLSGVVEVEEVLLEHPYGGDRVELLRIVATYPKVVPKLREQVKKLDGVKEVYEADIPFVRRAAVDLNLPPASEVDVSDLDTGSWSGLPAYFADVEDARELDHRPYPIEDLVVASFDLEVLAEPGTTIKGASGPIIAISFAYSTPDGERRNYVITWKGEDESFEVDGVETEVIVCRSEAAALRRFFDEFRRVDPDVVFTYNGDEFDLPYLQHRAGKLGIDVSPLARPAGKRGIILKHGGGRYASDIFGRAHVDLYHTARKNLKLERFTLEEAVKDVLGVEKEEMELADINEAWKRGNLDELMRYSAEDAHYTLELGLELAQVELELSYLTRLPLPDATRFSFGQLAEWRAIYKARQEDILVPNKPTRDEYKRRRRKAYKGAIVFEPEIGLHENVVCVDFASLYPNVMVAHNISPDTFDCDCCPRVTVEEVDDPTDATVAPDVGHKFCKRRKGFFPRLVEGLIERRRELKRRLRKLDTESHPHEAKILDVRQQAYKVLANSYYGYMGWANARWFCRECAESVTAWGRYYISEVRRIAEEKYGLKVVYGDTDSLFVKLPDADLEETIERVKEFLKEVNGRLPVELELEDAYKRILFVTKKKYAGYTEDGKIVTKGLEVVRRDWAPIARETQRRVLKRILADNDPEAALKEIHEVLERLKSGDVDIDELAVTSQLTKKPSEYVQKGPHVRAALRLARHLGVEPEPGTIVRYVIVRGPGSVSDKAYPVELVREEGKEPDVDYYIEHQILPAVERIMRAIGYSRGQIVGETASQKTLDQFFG

M.K. polB DNA polymerase = M.K. polB DNA polymerase (Methanopyrus kandleri, UniProt Q8TWJ5); assay: Effects of media components on M.K. polB DNA polymerase activity (primer extension); format: biochemical
Method: DNA polymerase reaction mixtures (15-20 μl) contained dATP, dTTP, dCTP, and dGTP (1 mM each), 4.5 mM MgCl2, detergents Tween 20 and Nonidet P-40 (0.2% each), fixed concentrations of PTJ—duplex, other additions, as indicated, and appropriate amounts of polB in 30 mM Tris-HCl buffer pH 8.0 (25° C.). The background reaction mixtures contained all components except DNA polymerases. Primer extensions were carried out for a preset time at 75° C. in PTC-150 Minicycler (MJ Research, Inc.; Waltham, Mass.). 5 μl samples were removed and chilled to 4° C. followed by immediate addition of 20 μl of 20 mM EDTA. The samples were desalted by centrifugation through Sephadex G-50 spun columns, diluted, and analyzed on a ABI Prism 377 DNA sequencer (Applied BioSystems; Foster City, Calif.). For each sample, raw data were extracted from the sequencer trace files with the program Chromas 1.5 (Technelysium Pty Ltd., Australia), and the fluorescent signals were analyzed by our nonlinear regression data analysis programs written in Fortran. The programs applied Powell algorithms to approximate the signals by a number of Gaussian peaks and calculate integral fluorescent intensities for each product peak. The total amount of fluorescent products for each time of incubation was determined, and the initial rates of extension were calculated.
The next two tables (Table 4 and 5) display effects of various media components on M.K. polB DNA polymerase activity. Initial rates of primer extension reaction were measured as described by Pavlov et al., 2002.

PolB = assay: Interaction of polB with PCNA (primer extension assay); format: biochemical, Methanopyrus kandleri; conditions: PCNA 5.6 μM subunits, 100 mM NaCl
Method: PolB was incubated with PCNA (final concentration 5.6 μM subunits) in the presence of 100 mM NaCl. The polymerase activity was measured in the primer extension assay and compared to the activity without PCNA added. Even without clamp loader, the interaction of PCNA with PolB was detected as the initial rate of the primer extension increased 1.75 times. […] This happens, most likely because PCNA anchors polB on the PTJ and/or prevents partial melting of the PTJ duplex.

M.K. polB DNA polymerase, sequence (Q8TWJ5 entry or part of it): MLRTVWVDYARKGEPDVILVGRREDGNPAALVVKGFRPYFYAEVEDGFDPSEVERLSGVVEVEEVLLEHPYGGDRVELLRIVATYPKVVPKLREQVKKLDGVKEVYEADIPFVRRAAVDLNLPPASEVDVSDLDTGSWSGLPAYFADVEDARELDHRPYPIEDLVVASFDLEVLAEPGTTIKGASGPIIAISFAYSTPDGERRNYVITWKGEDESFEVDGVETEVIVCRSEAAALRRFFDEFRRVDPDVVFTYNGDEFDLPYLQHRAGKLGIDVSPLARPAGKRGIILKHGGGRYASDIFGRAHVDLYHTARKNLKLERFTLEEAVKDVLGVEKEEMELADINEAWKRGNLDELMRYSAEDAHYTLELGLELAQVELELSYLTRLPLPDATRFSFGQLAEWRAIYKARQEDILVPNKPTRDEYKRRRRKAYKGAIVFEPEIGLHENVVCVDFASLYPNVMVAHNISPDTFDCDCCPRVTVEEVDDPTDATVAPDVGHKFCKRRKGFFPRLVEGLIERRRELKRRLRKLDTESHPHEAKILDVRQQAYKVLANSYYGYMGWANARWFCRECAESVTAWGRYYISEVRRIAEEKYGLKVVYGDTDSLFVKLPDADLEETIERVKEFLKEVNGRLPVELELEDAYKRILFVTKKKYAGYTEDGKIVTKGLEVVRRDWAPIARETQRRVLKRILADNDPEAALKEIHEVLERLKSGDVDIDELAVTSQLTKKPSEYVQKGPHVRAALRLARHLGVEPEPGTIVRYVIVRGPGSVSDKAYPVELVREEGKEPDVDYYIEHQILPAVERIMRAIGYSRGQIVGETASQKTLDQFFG

B1: M. kandleri AV19 PCNA (MK1030), DNA polymerase sliding clamp (other)
chain: LVEFRAYQEEARYFKYAFNAAGKVVEEAPLIVTENGIVSRAMDASHIAMAVLEMPWEMFDEYEPPSDELMYGLDMEEVTRIVRRARVTDEITLEGEDEEEVIIKLGSSGYEREFRLRSIDIDDIPDEPELDFAVEVTVVPDFIQDAVRDADLVSDTVKVGAKGNTFYFKAEGERGRVIPKVQEGAEALLTFEVEEDVETAYPLDYLKDMIQAAQGAESVRIRLGQDMPLELTFRIGPAGEGKLTFYLAPRVEE
initial rate of the primer extension [1]: 1.75 fold
effect on polymerase activity of PolB (M.K. polB DNA polymerase): increase
effect on hydrolysis of the primer annealed to the duplex (PolB): suppression of hydrolysis of the primer

From patent publication US20060068386A1, “Complete genome and protein sequence of the hyperthermophile methanopyrus kandleri av19 and monophyly of archael methanogens and methods of use thereof” (priority 2002, published 2006)
